Our source for the OD 492 nm values is patent US20090311265A1.

This assay concerns the target HA of BPL-inactivated virus preparation of strain A/New Caledonia/20/99 (H1N1) (influenza A virus A/New Caledonia/20/99 (H1N1)). The experiment in a line: ELISA, coated inactivated virus, IgG 5 µg/ml. For orientation: An ELISA detects its analyte on a solid surface through an enzyme-linked reagent.

As for CR6261 (antibody), the OD 492 nm is 1.46 OD 492 nm.
CR3014 (antibody) gave an OD 492 nm of 0.09 OD 492 nm.
